Results reported in US20090269356, “Complement Binding Aptamers and Anti-C5 Agents Useful in the Treatment of Ocular Disorders” (published 2009).

Columns and labels:
[1] = biological target: complement C5 in human serum/blood (Homo sapiens, UniProt P01031); test: inhibition; hemolysis, 0.2% human serum, 25 C; settings: protein: extract
Method: Hemolysis Assay: The effect of ARC913 (SEQ ID NO: 75) on the classical pathway of the complement system was analyzed using a hemolysis assay previously described, compared to both ARC186 (SEQ ID NO: 4) (Anti-C5 aptamer, positive control) and unselected dRmY pool (negative control). In the assay of hemolytic inhibition, a solution of 0.2% whole human serum was mixed with antibody-coated sheep erythrocytes (Diamedix EZ Complement CH50 Test, Diamedix Corporation, Miami, Fla.) in the presence of titrated ARC913 (SEQ ID NO: 75). The assay was run in veronal-buffered saline containing calcium, magnesium and 1% gelatin (GVB⁺⁺ complement buffer) and incubated for 1 hr at 25° C. After incubation the samples were centrifuged. The optical density at 415 nm (OD₄₁₅) of the supernatant was read. The inhibition of hemolysis activity is expressed as % hemolysis activity compared to control. The IC₅₀ of the aptamer was calculated to be about 30 nM.

[2] = biological target: complement C5 (full length) (Homo sapiens, UniProt P01031); test: filter; dot blot; 20% plateau; settings: tags: Quidel / Complement Technologies A120.14 / Advanced Research Technologies
Sequence of complement C5 (full length) (P01031 whole entry): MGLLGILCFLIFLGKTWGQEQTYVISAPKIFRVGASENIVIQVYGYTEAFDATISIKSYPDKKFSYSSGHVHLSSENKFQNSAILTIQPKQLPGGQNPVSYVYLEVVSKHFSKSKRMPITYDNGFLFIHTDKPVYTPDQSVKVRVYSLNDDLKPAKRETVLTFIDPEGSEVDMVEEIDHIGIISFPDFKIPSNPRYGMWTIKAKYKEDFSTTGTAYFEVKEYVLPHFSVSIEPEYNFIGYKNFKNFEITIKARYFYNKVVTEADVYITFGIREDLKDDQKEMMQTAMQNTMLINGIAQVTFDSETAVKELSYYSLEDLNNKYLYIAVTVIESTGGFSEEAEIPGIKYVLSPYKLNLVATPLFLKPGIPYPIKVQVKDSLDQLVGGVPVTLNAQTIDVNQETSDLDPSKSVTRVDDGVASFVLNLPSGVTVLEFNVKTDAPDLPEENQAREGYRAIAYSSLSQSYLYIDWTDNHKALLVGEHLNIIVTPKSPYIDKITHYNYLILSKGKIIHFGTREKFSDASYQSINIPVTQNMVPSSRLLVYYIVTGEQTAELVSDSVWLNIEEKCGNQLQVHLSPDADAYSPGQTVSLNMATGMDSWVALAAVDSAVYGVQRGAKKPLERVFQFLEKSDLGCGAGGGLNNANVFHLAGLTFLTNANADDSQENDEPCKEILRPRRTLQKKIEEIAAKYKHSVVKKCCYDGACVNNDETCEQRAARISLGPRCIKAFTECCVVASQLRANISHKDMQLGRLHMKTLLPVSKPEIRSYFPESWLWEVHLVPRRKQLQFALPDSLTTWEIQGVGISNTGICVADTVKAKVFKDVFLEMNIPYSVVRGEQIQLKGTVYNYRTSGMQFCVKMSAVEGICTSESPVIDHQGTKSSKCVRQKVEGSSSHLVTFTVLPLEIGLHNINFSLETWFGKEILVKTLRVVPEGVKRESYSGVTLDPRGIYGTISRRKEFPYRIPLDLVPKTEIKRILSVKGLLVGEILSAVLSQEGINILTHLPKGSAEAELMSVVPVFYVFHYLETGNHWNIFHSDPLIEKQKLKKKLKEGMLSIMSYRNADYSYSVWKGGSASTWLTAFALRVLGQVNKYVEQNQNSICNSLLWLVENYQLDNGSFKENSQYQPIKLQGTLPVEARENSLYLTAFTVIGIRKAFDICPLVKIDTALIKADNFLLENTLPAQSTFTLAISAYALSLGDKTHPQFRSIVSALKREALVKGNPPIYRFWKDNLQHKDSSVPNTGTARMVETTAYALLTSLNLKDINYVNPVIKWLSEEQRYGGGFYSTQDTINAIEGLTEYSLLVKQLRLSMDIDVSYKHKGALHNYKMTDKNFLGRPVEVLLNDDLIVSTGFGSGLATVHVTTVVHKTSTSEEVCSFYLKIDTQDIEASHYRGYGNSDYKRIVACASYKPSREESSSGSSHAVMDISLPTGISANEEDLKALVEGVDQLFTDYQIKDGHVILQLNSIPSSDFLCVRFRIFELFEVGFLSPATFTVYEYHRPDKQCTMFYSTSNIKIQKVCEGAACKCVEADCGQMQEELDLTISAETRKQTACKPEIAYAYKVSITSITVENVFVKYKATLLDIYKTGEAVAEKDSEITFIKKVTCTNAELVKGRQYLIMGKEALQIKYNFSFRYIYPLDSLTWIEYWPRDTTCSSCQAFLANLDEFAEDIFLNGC
Method: The selection progress was monitored using a sandwich filter binding (dot blot) assay. The 5′-³²P-labeled pool RNA (trace concentration) was incubated with C5, 1×DPBS plus 0.1 mg/mL tRNA and 0.1 mg/mL salmon sperm DNA, for 30 minutes at room temperature, and then applied to a nitrocellulose and nylon filter sandwich in a dot blot apparatus (Schleicher and Schuell). The percentage of pool RNA bound to the nitrocellulose was calculated and monitored approximately every 3 rounds with a single point screen (+/−300 nM C5). Pool Kd measurements were measured using a titration of protein and the dot blot apparatus as described above.
Sequence Information: 45 clones from each pool were sequenced. R10 full length pool was dominated by one single clone ARC913 (SEQ ID NO: 75) which made up 24% of the pool, 2 sets of duplicates and single sequences made up the remainder. The R10 trypsinized pool contained 8 copies of the same sequence ARC913 (SEQ ID NO: 75), but the pool was dominated by another sequence (AMX221.A7; 46%).

Sequence of complement C5 in human serum/blood (P01031 whole entry): as above

B1: ARC913 (mixed)
RNA: GGGAGAGGAGAGAACGUUCUACCUUGGUUUGGCACAGGCAUACAUACGCAGGGGUCGAUCGAUCGAUCAUCGAUG
modifications: dRmY: A,G deoxy; C,U 2'-OMe
IC50 [1]: ~30 nM | Kd [2]: ~140 nM
